Test results taken from patent publication US20170015738A1.
Several values for one entry are separate records, joined by “and”; a condition that tells them apart may be missing. Identical values can stand only once. Each block holds one substance with its values, some of them ahead of it.

Columns and labels:
[1] = molecular target: normal P301L mutant human 4R0N tau from rTg4510 mouse brain (55 kDa band) (human) (UniProt P10636); experiment: immunodepletion of rTg4510 brain extracts; western blot quantification (FIG. 14)
Sequence of normal P301L mutant human 4R0N tau from rTg4510 mouse brain (55 kDa band) (human) (P10636 other isoform, or with tags, fused parts or gaps P301L P301L): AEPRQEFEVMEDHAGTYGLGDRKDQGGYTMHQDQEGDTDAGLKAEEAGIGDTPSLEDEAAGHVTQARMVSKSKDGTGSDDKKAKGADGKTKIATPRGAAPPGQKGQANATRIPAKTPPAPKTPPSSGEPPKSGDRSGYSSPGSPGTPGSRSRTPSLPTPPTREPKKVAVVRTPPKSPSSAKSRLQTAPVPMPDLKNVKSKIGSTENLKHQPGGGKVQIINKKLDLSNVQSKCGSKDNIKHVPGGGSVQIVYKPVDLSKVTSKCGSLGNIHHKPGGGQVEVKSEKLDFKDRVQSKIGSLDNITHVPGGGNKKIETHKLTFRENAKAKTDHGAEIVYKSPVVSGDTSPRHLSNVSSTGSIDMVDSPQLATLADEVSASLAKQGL

[2] = molecular target: hyperphosphorylated tau phosphorylated at serine 396 in human Alzheimer brain (extracts and sections) (human) (UniProt P10636); experiment: immunodepletion of Alzheimer brain extract; western blot
Sequence of hyperphosphorylated tau phosphorylated at serine 396 in human Alzheimer brain (extracts and sections) (human) (P10636 other isoform, or with tags, fused parts or gaps limits assumed): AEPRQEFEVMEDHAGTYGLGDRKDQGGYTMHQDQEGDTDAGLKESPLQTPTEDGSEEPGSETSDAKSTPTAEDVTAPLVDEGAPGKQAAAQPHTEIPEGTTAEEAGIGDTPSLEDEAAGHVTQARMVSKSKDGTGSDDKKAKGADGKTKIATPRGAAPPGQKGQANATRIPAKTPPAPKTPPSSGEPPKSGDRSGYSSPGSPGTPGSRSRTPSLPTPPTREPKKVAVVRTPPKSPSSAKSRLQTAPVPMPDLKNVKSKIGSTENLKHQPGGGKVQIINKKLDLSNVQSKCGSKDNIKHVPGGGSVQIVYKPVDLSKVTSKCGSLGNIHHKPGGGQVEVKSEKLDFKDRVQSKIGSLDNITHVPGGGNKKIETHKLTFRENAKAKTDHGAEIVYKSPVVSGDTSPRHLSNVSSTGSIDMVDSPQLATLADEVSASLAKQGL

[3] = molecular target: total tau in Alzheimer brain extract (human) (UniProt P10636); experiment: as above
Sequence of total tau in Alzheimer brain extract (human) (P10636 other isoform, or with tags, fused parts or gaps limits assumed): as above

[4] = molecular target: hyper-phosphorylated P301L mutant human 4R0N tau from rTg4510 mouse brain (64 and 70 kDa species; P3 / brain extract) (human) (UniProt P10636); experiment: MSD ELISA on immobilised P3; ratio of binding to Tg4510 over wt mouse material
Sequence of hyper-phosphorylated P301L mutant human 4R0N tau from rTg4510 mouse brain (64 and 70 kDa species; P3 / brain extract) (human) (P10636 other isoform, or with tags, fused parts or gaps P301L P301L): as the sequence (P10636 other isoform, or with tags, fused parts or gaps P301L P301L) above

[5] = molecular target: aggregated Tau in Alzheimer brain extract (Cisbio assay) (human) (UniProt P10636); experiment: immunodepletion of AD extract; Cisbio tau aggregation assay; in comparison to hHel antibody
Sequence of aggregated Tau in Alzheimer brain extract (Cisbio assay) (human) (P10636 other isoform, or with tags, fused parts or gaps limits assumed): as the sequence (P10636 other isoform, or with tags, fused parts or gaps limits assumed) above

[6] = molecular target: pathological hyperphosphorylated tau from human Alzheimer's disease brain, sarkosyl-insoluble P3 fraction (human) (UniProt P10636); experiment: MSD ELISA on immobilised P3 tau; ratio of binding to AD over healthy control at saturation
Sequence of pathological hyperphosphorylated tau from human Alzheimer's disease brain, sarkosyl-insoluble P3 fraction (human) (P10636 other isoform, or with tags, fused parts or gaps limits assumed): as above

[7] = molecular target: pathological hyperphosphorylated tau from human Alzheimer's disease brain, sarkosyl-insoluble P3 fraction (human) (UniProt P10636); experiment: fluid phase inhibition of p-tau antigen capture in mC10-2 coated plate
[8] = molecular target: pathological hyperphosphorylated tau from human Alzheimer's disease brain, sarkosyl-insoluble P3 fraction (human) (UniProt P10636); experiment: MSD, AD-P3 coated plate (FIG. 34); PHF 13 at '1000' (unit inferred) + PBS/0.1% BSA (no competitor)
[9] = molecular target: pathological hyperphosphorylated tau from human Alzheimer's disease brain, sarkosyl-insoluble P3 fraction (human) (UniProt P10636); experiment: MSD, AD-P3 coated plate (FIG. 34); PHF 13 at '3000' (unit inferred) + PBS/0.1% BSA (no competitor)
[10] = molecular target: pathological hyperphosphorylated tau from human Alzheimer's disease brain, sarkosyl-insoluble P3 fraction (human) (UniProt P10636); experiment: MSD, AD-P3 coated plate (FIG. 34); PHF 13 at '10000' (unit inferred) + PBS/0.1% BSA (no competitor)
[11] = molecular target: pathological hyperphosphorylated tau from human Alzheimer's disease brain, sarkosyl-insoluble P3 fraction (human) (UniProt P10636); experiment: MSD, AD-P3 coated plate (FIG. 34); PHF 13 at '30000' (unit inferred) + PBS/0.1% BSA (no competitor)
[12] = molecular target: pathological hyperphosphorylated tau from human Alzheimer's disease brain, sarkosyl-insoluble P3 fraction (human) (UniProt P10636); experiment: MSD, AD-P3 coated plate (FIG. 34); PHF 13 at '100000' (unit inferred) + PBS/0.1% BSA (no competitor)
[13] = molecular target: pathological hyperphosphorylated tau from human Alzheimer's disease brain, sarkosyl-insoluble P3 fraction (human) (UniProt P10636); experiment: MSD, AD-P3 coated plate (FIG. 34); PHF 13 at '300000' (unit inferred) + PBS/0.1% BSA (no competitor)
[14] = molecular target: pathological hyperphosphorylated tau from human Alzheimer's disease brain, sarkosyl-insoluble P3 fraction (human) (UniProt P10636); experiment: MSD, AD-P3 coated plate (FIG. 34); PHF 13 at '1000000' (unit inferred) + PBS/0.1% BSA (no competitor)
[15] = molecular target: pathological hyperphosphorylated tau from human Alzheimer's disease brain, sarkosyl-insoluble P3 fraction (human) (UniProt P10636); experiment: MSD, AD-P3 coated plate (FIG. 34); PHF 13 at '1000' (unit inferred) + 10 µM tau peptide as competitor
[16] = molecular target: pathological hyperphosphorylated tau from human Alzheimer's disease brain, sarkosyl-insoluble P3 fraction (human) (UniProt P10636); experiment: MSD, AD-P3 coated plate (FIG. 34); PHF 13 at '3000' (unit inferred) + 10 µM tau peptide as competitor
[17] = molecular target: pathological hyperphosphorylated tau from human Alzheimer's disease brain, sarkosyl-insoluble P3 fraction (human) (UniProt P10636); experiment: MSD, AD-P3 coated plate (FIG. 34); PHF 13 at '30000' (unit inferred) + 10 µM tau peptide as competitor
[18] = molecular target: pathological hyperphosphorylated tau from human Alzheimer's disease brain, sarkosyl-insoluble P3 fraction (human) (UniProt P10636); experiment: MSD, AD-P3 coated plate (FIG. 34); PHF 13 at '100000' (unit inferred) + 10 µM tau peptide as competitor
[19] = molecular target: pathological hyperphosphorylated tau from human Alzheimer's disease brain, sarkosyl-insoluble P3 fraction (human) (UniProt P10636); experiment: MSD, AD-P3 coated plate (FIG. 34); PHF 13 at '300000' (unit inferred) + 10 µM tau peptide as competitor
[20] = molecular target: pathological hyperphosphorylated tau from human Alzheimer's disease brain, sarkosyl-insoluble P3 fraction (human) (UniProt P10636); experiment: MSD, AD-P3 coated plate (FIG. 34); PHF 13 at '1000000' (unit inferred) + 10 µM tau peptide as competitor
[21] = molecular target: pathological hyperphosphorylated tau from human Alzheimer's disease brain, sarkosyl-insoluble P3 fraction (human) (UniProt P10636); experiment: MSD, AD-P3 coated plate (FIG. 34); PHF 13 at '10000M' (unit not explained) + 10 µM tau peptide as competitor
[22] = molecular target: pathological hyperphosphorylated tau from human Alzheimer's disease brain, sarkosyl-insoluble P3 fraction (human) (UniProt P10636); experiment: fluid phase MSD ELISA: inhibition of tau antigen capture
[23] = molecular target: pathological hyperphosphorylated tau from human Alzheimer's disease brain, sarkosyl-insoluble P3 fraction (human) (UniProt P10636); experiment: fluid phase MSD ELISA: inhibition of AD-P3 tau antigen capture
[24] = molecular target: pathological hyperphosphorylated tau from human Alzheimer's disease brain, sarkosyl-insoluble P3 fraction (human) (UniProt P10636); experiment: MSD, AD-P3 coated plate (FIG. 34); C10-2 3 ng/ml + PBS/0.1% BSA (no competitor)
[25] = molecular target: pathological hyperphosphorylated tau from human Alzheimer's disease brain, sarkosyl-insoluble P3 fraction (human) (UniProt P10636); experiment: MSD, AD-P3 coated plate (FIG. 34); C10-2 10 ng/ml + PBS/0.1% BSA (no competitor)
[26] = molecular target: pathological hyperphosphorylated tau from human Alzheimer's disease brain, sarkosyl-insoluble P3 fraction (human) (UniProt P10636); experiment: MSD, AD-P3 coated plate (FIG. 34); C10-2 30 ng/ml + PBS/0.1% BSA (no competitor)
[27] = molecular target: pathological hyperphosphorylated tau from human Alzheimer's disease brain, sarkosyl-insoluble P3 fraction (human) (UniProt P10636); experiment: MSD, AD-P3 coated plate (FIG. 34); C10-2 100 ng/ml + PBS/0.1% BSA (no competitor)
[28] = molecular target: pathological hyperphosphorylated tau from human Alzheimer's disease brain, sarkosyl-insoluble P3 fraction (human) (UniProt P10636); experiment: MSD, AD-P3 coated plate (FIG. 34); C10-2 300 ng/ml + PBS/0.1% BSA (no competitor)
[29] = molecular target: hyperphosphorylated tau phosphorylated at serine 396 in human Alzheimer brain (extracts and sections) (human) (UniProt P10636); experiment: immunodepletion of Alzheimer brain extract; western blot; compared to hHel control antibody
[30] = molecular target: pathological hyperphosphorylated tau from human Alzheimer's disease brain, sarkosyl-insoluble P3 fraction (human) (UniProt P10636); experiment: MSD, AD-P3 coated plate (FIG. 34); C10-2 1000 ng/ml + PBS/0.1% BSA (no competitor)
[31] = molecular target: pathological hyperphosphorylated tau from human Alzheimer's disease brain, sarkosyl-insoluble P3 fraction (human) (UniProt P10636); experiment: fluid phase MSD ELISA: antibody mixed with AD P3 in solution, capture on C10-2 coated plates
[32] = molecular target: pathological hyperphosphorylated tau from human Alzheimer's disease brain, sarkosyl-insoluble P3 fraction (human) (UniProt P10636); experiment: fluid phase inhibition of Ptau antigen capture in C10-2 coated plate (comparison with mD1.2)
[33] = molecular target: pathological hyperphosphorylated tau from human Alzheimer's disease brain, sarkosyl-insoluble P3 fraction (human) (UniProt P10636); experiment: MSD, AD-P3 coated plate (FIG. 34); C10-2 10000 ng/ml + PBS/0.1% BSA (no competitor)
[34] = molecular target: hyperphosphorylated tau phosphorylated at serine 396 in human Alzheimer brain (extracts and sections) (human) (UniProt P10636); experiment: immunodepletion of Alzheimer brain extract with antibody on Protein G Dynabeads; western blot
[35] = molecular target: pathological hyperphosphorylated tau from human Alzheimer's disease brain, sarkosyl-insoluble P3 fraction (human) (UniProt P10636); experiment: fluid phase inhibition of p-tau antigen capture in mC10-2 coated plate (comparison with PHF-13)
[36] = molecular target: pathological hyperphosphorylated tau from human Alzheimer's disease brain, sarkosyl-insoluble P3 fraction (human) (UniProt P10636); experiment: MSD, AD-P3 coated plate (FIG. 34); C10-2 3 ng/ml + 10 µM tau peptide as competitor
[37] = molecular target: pathological hyperphosphorylated tau from human Alzheimer's disease brain, sarkosyl-insoluble P3 fraction (human) (UniProt P10636); experiment: MSD, AD-P3 coated plate (FIG. 34); C10-2 10 ng/ml + 10 µM tau peptide as competitor
[38] = molecular target: pathological hyperphosphorylated tau from human Alzheimer's disease brain, sarkosyl-insoluble P3 fraction (human) (UniProt P10636); experiment: MSD, AD-P3 coated plate (FIG. 34); C10-2 30 ng/ml + 10 µM tau peptide as competitor
[39] = molecular target: pathological hyperphosphorylated tau from human Alzheimer's disease brain, sarkosyl-insoluble P3 fraction (human) (UniProt P10636); experiment: MSD, AD-P3 coated plate (FIG. 34); C10-2 100 ng/ml + 10 µM tau peptide as competitor
[40] = molecular target: pathological hyperphosphorylated tau from human Alzheimer's disease brain, sarkosyl-insoluble P3 fraction (human) (UniProt P10636); experiment: MSD, AD-P3 coated plate (FIG. 34); C10-2 300 ng/ml + 10 µM tau peptide as competitor
[41] = molecular target: pathological hyperphosphorylated tau from human Alzheimer's disease brain, sarkosyl-insoluble P3 fraction (human) (UniProt P10636); experiment: MSD, AD-P3 coated plate (FIG. 34); C10-2 1000 ng/ml + 10 µM tau peptide as competitor
[42] = molecular target: pathological hyperphosphorylated tau from human Alzheimer's disease brain, sarkosyl-insoluble P3 fraction (human) (UniProt P10636); experiment: MSD, AD-P3 coated plate (FIG. 34); C10-2 10000 ng/ml + 10 µM tau peptide as competitor

Sequence of HJ8.5 (antibody) (VH): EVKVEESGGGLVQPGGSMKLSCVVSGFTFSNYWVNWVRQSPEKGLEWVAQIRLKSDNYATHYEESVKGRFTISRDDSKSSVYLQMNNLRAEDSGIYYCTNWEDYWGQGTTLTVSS
Sequence of HJ8.5 (antibody) (VL): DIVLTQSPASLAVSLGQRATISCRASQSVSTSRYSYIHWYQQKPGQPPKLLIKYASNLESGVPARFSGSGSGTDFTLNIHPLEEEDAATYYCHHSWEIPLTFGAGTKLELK

percent reduction of the 55 kDa band [1]: 74%
Substance: Tau5 (commercial total Tau antibody, Invitrogen)

percent removed by immunodepletion [2]: 88% | percent removed by immunodepletion [3]: 89% | TG/wt [4]: 51 fold | percent of aggregated Tau removed [5]: 99% | AD/ctrl [6]: 3 fold
Substance: HJ8.5 (antibody)

IC50 [7]: 500 to 1000 nM | mean Signal [8]: 12600 signal | signal [8]: 13700 signal and 11600 signal | mean Signal [9]: 5790 signal | signal [9]: 6130 signal and 5460 signal | mean Signal [10]: 2880 signal | signal [10]: 2900 signal and 2860 signal | mean Signal [11]: 1580 signal | signal [11]: 1660 signal and 1500 signal | mean Signal [12]: 852 signal | signal [12]: 856 signal and 847 signal | mean Signal [13]: 560 signal | signal [13]: 568 signal and 551 signal | mean Signal [14]: 335 signal | signal [14]: 358 signal and 312 signal | mean Signal [15]: 6900 signal | signal [15]: 7540 signal and 6250 signal | mean Signal [16]: 2180 signal | signal [16]: 2280 signal and 2080 signal | mean Signal [17]: 481 signal | signal [17]: 472 signal and 490 signal | mean Signal [18]: 355 signal | signal [18]: 370 signal and 340 signal | mean Signal [19]: 299 signal | signal [19]: 305 signal and 292 signal | mean Signal [20]: 280 signal | signal [20]: 284 signal and 276 signal | mean Signal [21]: 953 signal | signal [21]: 1020 signal and 886 signal
Substance: PHF13 (commercially available antibody for Tau phosphorylated at Ser 396)

IC50 [22]: 320 nM | IC50 [23]: 3 nM | mean Signal [24]: 1880 signal | signal [24]: 1890 signal and 1870 signal | mean Signal [25]: 5720 signal | signal [25]: 5860 signal and 5580 signal | mean Signal [26]: 11900 signal | signal [26]: 12000 signal and 11800 signal | mean Signal [27]: 21800 signal | signal [27]: 21900 signal and 21700 signal | mean Signal [28]: 30400 signal | signal [28]: 30300 signal and 30500 signal | percent removed by immunodepletion [29]: 93% | mean Signal [30]: 38500 signal | signal [30]: 38200 signal and 38800 signal | IC50 [31]: 3 nM | IC50 [32]: 10 to 20 nM | mean Signal [33]: 51200 signal | signal [33]: 51300 signal and 51100 signal | percent removed by immunodepletion [34]: 90% | AD/ctrl [6]: > 100 fold | IC50 [35]: 10 to 20 nM | mean Signal [36]: 366 signal | signal [36]: 384 signal and 348 signal | mean Signal [37]: 383 signal | signal [37]: 398 signal and 367 signal | mean Signal [38]: 345 signal | signal [38]: 384 signal and 306 signal | mean Signal [39]: 357 signal | signal [39]: 401 signal and 313 signal | mean Signal [40]: 407 signal | signal [40]: 434 signal and 379 signal | mean Signal [41]: 451 signal | signal [41]: 462 signal and 439 signal | mean Signal [42]: 870 signal | signal [42]: 920 signal and 820 signal
Substance: Antibody C10-2 (murine)
